B1: bispecific VHH 7D12var8-5C8var1-Y105F (bispecific antibody)
chain: EVQLVESGGGSVQPGGSLRLSCAASGRTSRSYGMGWFRQAPGKEREFVSGISWRGDSTGYADSVKGRFTISRDNAKNTVDLQMNSLRAEDTAVYYCAAAAGSAWYGTLYEYDYWGQGTLVTVSSGGGGSEVQLLESGGGSVQPGGSLRLSCAASGRPFSNYAMSWFRQAPGKEREFVSAISWSGGSTSYADSVKGRFTISRDNSKNTLYLQMNSLRAEDTAVYYCAAQFSGADFGFGRLGIRGYEYDYWGQGTQVTVSS
B2: 7D12var8-5C8var1(Y105F)-Fc (bispecific antibody, V domains shown)
V domain 1: EVQLVESGGGSVQPGGSLRLSCAASGRTSRSYGMGWFRQAPGKEREFVSGISWRGDSTGYADSVKGRFTISRDNAKNTVDLQMNSLRAEDTAVYYCAAAAGSAWYGTLYEYDYWGQGTLVTVSS
V domain 2: EVQLLESGGGSVQPGGSLRLSCAASGRPFSNYAMSWFRQAPGKEREFVSAISWSGGSTSYADSVKGRFTISRDNSKNTLYLQMNSLRAEDTAVYYCAAQFSGADFGFGRLGIRGYEYDYWGQGTQVTVSS
notes: Heterodimer of two VHH-Fc chains: the anti-EGFR 7D12var8-Fc (hole) and the anti-Vδ2 5C8var1(Y105F)-Fc (knob); The Fc is human IgG1 with L234F/L235E and a modified hinge; also called 7D12var8-5C8var1(Y105F) with Fc region

Legend:
[1] = target: T1, epidermal growth factor receptor (EGFR) on EGFR-expressing tumor cell lines A-431, HCT-116 and HT-29 (human, UniProt P00533 25-1210); assay: cell-based or functional assay
[2] = target: human Vγ9Vδ2 T cell receptor (TCR) on primary Vγ9Vδ2 T cells (human), Q99603; assay: cell-based or functional assay
[3] = target: T1, epidermal growth factor receptor (EGFR) …; assay: cell-based ELISA on A-431 cells, anti-IgG1-HRP, signal at 450 nm
Method: To this end, tumor cells were first seeded at different concentrations on day −1 to reach a concentration of approximately 50000 cells/well on day 0. […] Bound antibodies were then labelled in a secondary incubation step with anti-IgG1-HRP for one hour at 37° C. The secondary antibody binding was then resolved by the addition of 3,3′,5,5′-Tetramethylbenzidine and the colorimetric change induced by the HRP, followed by the addition of H2SO4 to stop the reaction. The optical density (OD) was then measured in a UV spectrometer at a wavelength of 450 nm.

Binder	EC50 cytotoxicity (A431 tumor cell kill, 24 h, with Vγ9Vδ2 T cells) [1] [pM]	EC50 degranulation (CD107A+ Vγ9Vδ2 T cells, 4 h, with A431 cells) [2] [pM]	EC50 (read off the curve) [3] [pM]
B1	2.5	11	–
B2	–	–	~2000

Reference: patent publication US20230303694A1 (LAVA THERAPEUTICS N V, published 2023)
